# B1: 2A2-E10(HRP) (antibody, V domains shown)
# VH: EVQLVESGGGLVQPKGSLKLSCAASGFTHNTYNMNWVRQAPGKGLEWVARIRSGSNMYATYYADSVKDRFTISRDDSQSILYLQMNNLKTEDTVMYYCERPDYSGSSYFDYWGQGTTLTVSS
# VL: DIQLTQPPSYLAASPGETITINCRASKSYSKYCLAWYQEKPGKTNKLLIYSGSTLQSGIPSRFSGSGSGTDFTLTISSLEPEDFAMYYCQQGNMYPYTFGGGTKLEIK
# Target: 天然CHIKV-E2蛋白 (Chikungunya virus (Ross株))
binder,measurement,value
B1,DAS-ELISA检测灵敏度,1e+06 PFU/mL

# Source: CN115093478A
